The results in this text go back to the Human Domainome abundance scans (Beltran et al. 2025).

± gives the uncertainty stated by the source.

A short description of this data set: abundance fitness (aPCA) (normalised: wild type 0, dead -1); higher = more abundant; growth selection in yeast, the domain comes from the species named. To be noted: Homo sapiens.
As for “BAG family molecular chaperone regulator 3 G25A, O95817”, the abundance fitness is -0.712 ± 0.17. In the case of “BAG family molecular chaperone regulator 3 G25C, O95817”, the abundance fitness was -0.74 ± 0.17.

Turning to “BAG family molecular chaperone regulator 3 G25D, O95817”, the abundance fitness is -0.548 ± 0.23. “BAG family molecular chaperone regulator 3 G25H, O95817” registered an abundance fitness of -0.125 ± 0.065. Substance “BAG family molecular chaperone regulator 3 G25K, O95817” came in with an abundance fitness of -0.492 ± 0.23.

With “BAG family molecular chaperone regulator 3 G25L, O95817”, the abundance fitness is -0.784 ± 0.19. Consider “BAG family molecular chaperone regulator 3 G25M, O95817”, for which the abundance fitness is -0.652 ± 0.075. Take “BAG family molecular chaperone regulator 3 G25N, O95817”: the abundance fitness is 0.081 ± 0.21. Substance “BAG family molecular chaperone regulator 3 G25Q, O95817” returned an abundance fitness of -1.03 ± 0.27. Substance “BAG family molecular chaperone regulator 3 G25R, O95817” gave an abundance fitness of -0.432 ± 0.14. For “BAG family molecular chaperone regulator 3 G25S, O95817”, the abundance fitness was -0.726 ± 0.19. For “BAG family molecular chaperone regulator 3 G25T, O95817”, the abundance fitness is -0.667 ± 0.22. Next, “BAG family molecular chaperone regulator 3 G25V, O95817”: -1.23 ± 0.33; “BAG family molecular chaperone regulator 3 G25W, O95817”: -0.875 ± 0.34.

The substance “BAG family molecular chaperone regulator 3 G35A, O95817” gave an abundance fitness of 0.335 ± 0.063. In turn, “BAG family molecular chaperone regulator 3 G35C, O95817” returned an abundance fitness of 0.146 ± 0.17. As for “BAG family molecular chaperone regulator 3 G35D, O95817”, the figure is 0.202 ± 0.13; as for “BAG family molecular chaperone regulator 3 G35F, O95817”, -0.552 ± 0.11. Take “BAG family molecular chaperone regulator 3 G35H, O95817”: the abundance fitness came out at 0.552 ± 0.28. Consider “BAG family molecular chaperone regulator 3 G35K, O95817”, for which the abundance fitness was 0.766 ± 0.078.

On to “BAG family molecular chaperone regulator 3 G35L, O95817”, for which the abundance fitness is -0.184 ± 0.14. With “BAG family molecular chaperone regulator 3 G35M, O95817”, the abundance fitness is -0.158 ± 0.16.

For “BAG family molecular chaperone regulator 3 G35N, O95817”, the abundance fitness stood at 1.26 ± 0.22. “BAG family molecular chaperone regulator 3 G35P, O95817” registered an abundance fitness of -0.237 ± 0.21. In the case of “BAG family molecular chaperone regulator 3 G35Q, O95817”, the abundance fitness amounted to 0.41 ± 0.11. As for “BAG family molecular chaperone regulator 3 G35R, O95817”, the figure is 0.366 ± 0.078; as for “BAG family molecular chaperone regulator 3 G35S, O95817”, 0.442 ± 0.064; as for “BAG family molecular chaperone regulator 3 G35T, O95817”, -0.006 ± 0.11. In turn, “BAG family molecular chaperone regulator 3 G35V, O95817” displayed an abundance fitness of -0.589 ± 0.16.

For “BAG family molecular chaperone regulator 3 G35W, O95817”, the abundance fitness is -0.726 ± 0.19.

“BAG family molecular chaperone regulator 3 G35Y, O95817” had an abundance fitness of -0.304 ± 0.24.

Substance “BAG family molecular chaperone regulator 3 G58A, O95817” showed an abundance fitness of -0.45 ± 0.15. “BAG family molecular chaperone regulator 3 G58C, O95817” came in with an abundance fitness of -0.17 ± 0.25. As for “BAG family molecular chaperone regulator 3 G58D, O95817”, the figure is 0.238 ± 0.18; as for “BAG family molecular chaperone regulator 3 G58E, O95817”, -0.045 ± 0.18. As for “BAG family molecular chaperone regulator 3 G58F, O95817”, the figure is -0.382 ± 0.37; as for “BAG family molecular chaperone regulator 3 G58H, O95817”, -0.263 ± 0.1; as for “BAG family molecular chaperone regulator 3 G58I, O95817”, 0.138 ± 0.28.

For the substance “BAG family molecular chaperone regulator 3 G58L, O95817”, the abundance fitness is -0.211 ± 0.2. The substance “BAG family molecular chaperone regulator 3 G58M, O95817” yielded an abundance fitness of 0.512 ± 0.17. Regarding “BAG family molecular chaperone regulator 3 G58N, O95817”, the abundance fitness is 0.51 ± 0.35. Next, “BAG family molecular chaperone regulator 3 G58P, O95817”: -0.032 ± 0.29; “BAG family molecular chaperone regulator 3 G58Q, O95817”: 0.85 ± 0.19; “BAG family molecular chaperone regulator 3 G58R, O95817”: -0.214 ± 0.08. In the case of “BAG family molecular chaperone regulator 3 G58S, O95817”, the abundance fitness is -0.193 ± 0.11.

For the substance “BAG family molecular chaperone regulator 3 G58V, O95817”, the abundance fitness is -0.129 ± 0.064. In the case of “BAG family molecular chaperone regulator 3 G58W, O95817”, the abundance fitness is -0.682 ± 0.29. On to “BAG family molecular chaperone regulator 3 H42A, O95817”, for which the abundance fitness was -0.857 ± 0.15. The substance “BAG family molecular chaperone regulator 3 H42C, O95817” displayed an abundance fitness of -0.457 ± 0.33. Take “BAG family molecular chaperone regulator 3 H42E, O95817”: the abundance fitness is -0.738 ± 0.33. Turning to “BAG family molecular chaperone regulator 3 H42G, O95817”, the abundance fitness was -0.65 ± 0.09.

In turn, “BAG family molecular chaperone regulator 3 H42I, O95817” displayed an abundance fitness of -0.625 ± 0.29. Turning to “BAG family molecular chaperone regulator 3 H42K, O95817”, the abundance fitness was -0.942 ± 0.42. The substance “BAG family molecular chaperone regulator 3 H42L, O95817” had an abundance fitness of -0.641 ± 0.18.

Turning to “BAG family molecular chaperone regulator 3 H42M, O95817”, the abundance fitness is -0.37 ± 0.11. Consider “BAG family molecular chaperone regulator 3 H42P, O95817”, for which the abundance fitness was -0.788 ± 0.13. In turn, “BAG family molecular chaperone regulator 3 H42R, O95817” gave an abundance fitness of -0.448 ± 0.18.

Regarding “BAG family molecular chaperone regulator 3 H42S, O95817”, the abundance fitness was -0.678 ± 0.25. For “BAG family molecular chaperone regulator 3 H42T, O95817”, the abundance fitness is -0.55 ± 0.21. In turn, “BAG family molecular chaperone regulator 3 H42W, O95817” yielded an abundance fitness of -0.886 ± 0.14.

As to “BAG family molecular chaperone regulator 3 H42Y, O95817”, the abundance fitness was -0.55 ± 0.088. Next, “BAG family molecular chaperone regulator 3 I28A, O95817”: -0.423 ± 0.2; “BAG family molecular chaperone regulator 3 I28C, O95817”: -0.375 ± 0.22; “BAG family molecular chaperone regulator 3 I28D, O95817”: -0.503 ± 0.18. Next, “BAG family molecular chaperone regulator 3 I28E, O95817”: 0.316 ± 0.11; “BAG family molecular chaperone regulator 3 I28G, O95817”: -0.088 ± 0.08; “BAG family molecular chaperone regulator 3 I28L, O95817”: -0.444 ± 0.17. For “BAG family molecular chaperone regulator 3 I28M, O95817”, the abundance fitness was determined as 0.248 ± 0.14.

In the case of “BAG family molecular chaperone regulator 3 I28N, O95817”, the abundance fitness is 0.206 ± 0.3.

In turn, “BAG family molecular chaperone regulator 3 I28P, O95817” showed an abundance fitness of -0.713 ± 0.28. “BAG family molecular chaperone regulator 3 I28Q, O95817” yielded an abundance fitness of -0.307 ± 0.22. As for “BAG family molecular chaperone regulator 3 I28R, O95817”, the figure is 0.171 ± 0.066; as for “BAG family molecular chaperone regulator 3 I28S, O95817”, 0.183 ± 0.083. The substance “BAG family molecular chaperone regulator 3 I28T, O95817” returned an abundance fitness of -0.636 ± 0.29. For the substance “BAG family molecular chaperone regulator 3 I28V, O95817”, the abundance fitness is 0.068 ± 0.1. Substance “BAG family molecular chaperone regulator 3 I28Y, O95817” registered an abundance fitness of -0.19 ± 0.3. Next, “BAG family molecular chaperone regulator 3 I30A, O95817”: -0.011 ± 0.11. As to “BAG family molecular chaperone regulator 3 I30C, O95817”, the abundance fitness turned out to be 0.028 ± 0.16. “BAG family molecular chaperone regulator 3 I30D, O95817” came in with an abundance fitness of -0.389 ± 0.14. The substance “BAG family molecular chaperone regulator 3 I30E, O95817” gave an abundance fitness of -0.226 ± 0.079. Substance “BAG family molecular chaperone regulator 3 I30G, O95817” came in with an abundance fitness of -0.44 ± 0.087.
